Results on 125 sequences are retold here after the supplement of paper PMC9112550, “Optimization of the antimicrobial peptide Bac7 by deep mutational scanning” (BMC Biology, 2022).

In this data set the test system is Escherichia coli TOP10. Description: shrunken log2 fold change of peptide-encoding DNA abundance (4.5 h post-induction vs induction); higher = less antimicrobial activity (less host growth inhibition). To be noted: time post-induction: 4.5 h; library: site-saturation at positions 5, 18, 19, 20.
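Also: peptides expressed intracellularly from a pBAD plasmid library in pooled LB shake-flask culture, induced with 0.3% L-arabinose, DNA abundance read by NGS, three biological replicates, DESeq2 with apeglm shrinkage.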

In the case of RRIRIRPPRLPRPRPRPLQWPRP, the “shrunken log2 fold change” value is -0.013.

Consider RRIRCRPPRLPRPRPRPRVVPRP, for which the “shrunken log2 fold change” value amounted to 0.247.

For the sequence RRIRTRPPRLPRPRPRPFTQPRP, the “shrunken log2 fold change” value is -0.487.

As to RRIRNRPPRLPRPRPRPQFTPRP, the “shrunken log2 fold change” value is -0.259.

As to RRIRDRPPRLPRPRPRPWLKPRP, the “shrunken log2 fold change” value was -0.00783.

Regarding RRIRARPPRLPRPRPRPELYPRP, the “shrunken log2 fold change” value turned out to be 0.428.

Regarding RRIRERPPRLPRPRPRPRKTPRP, the “shrunken log2 fold change” value was 0.318.

On to RRIRQRPPRLPRPRPRPLIMPRP, for which the “shrunken log2 fold change” value is -0.0338.

Consider RRIRNRPPRLPRPRPRPDSVPRP, for which the “shrunken log2 fold change” value was determined as 0.119.

RRIRGRPPRLPRPRPRPREEPRP: the “shrunken log2 fold change” value was determined as 1.57.

In the case of RRIRYRPPRLPRPRPRPANWPRP, the “shrunken log2 fold change” value was -0.0751.

With RRIRWRPPRLPRPRPRPRESPRP, the “shrunken log2 fold change” value is 0.846.

For RRIRMRPPRLPRPRPRPLVPPRP, the “shrunken log2 fold change” value stood at 0.208.

RRIRSRPPRLPRPRPRPERTPRP: the “shrunken log2 fold change” value amounted to 0.0493.

For the sequence RRIRFRPPRLPRPRPRPNNIPRP, the “shrunken log2 fold change” value is -1.04.

For the sequence RRIRGRPPRLPRPRPRPWHPPRP, the “shrunken log2 fold change” value was 0.49.

On to RRIRSRPPRLPRPRPRPCCAPRP, for which the “shrunken log2 fold change” value was determined as 0.115.

Consider RRIRYRPPRLPRPRPRPKLFPRP, for which the “shrunken log2 fold change” value was -0.0593.

In the case of RRIRRRPPRLPRPRPRPMEMPRP, the “shrunken log2 fold change” value was -0.0817.

In the case of RRIRVRPPRLPRPRPRPVDNPRP, the “shrunken log2 fold change” value is -0.663.

Consider RRIRRRPPRLPRPRPRPCICPRP, for which the “shrunken log2 fold change” value is -0.0935.

For the sequence RRIRQRPPRLPRPRPRPFMEPRP, the “shrunken log2 fold change” value is 0.212.

As for RRIRIRPPRLPRPRPRPCQAPRP, the “shrunken log2 fold change” value is -0.025.

With RRIRIRPPRLPRPRPRPDEVPRP, the “shrunken log2 fold change” value was -0.0316.

With RRIRYRPPRLPRPRPRPILFPRP, the “shrunken log2 fold change” value is -0.945.

As for RRIRVRPPRLPRPRPRPYPWPRP, the “shrunken log2 fold change” value is -0.361.

Consider RRIRIRPPRLPRPRPRPYMFPRP, for which the “shrunken log2 fold change” value is -0.892.

Consider RRIRERPPRLPRPRPRPRKYPRP, for which the “shrunken log2 fold change” value was -0.201.

Turning to RRIRYRPPRLPRPRPRPGNNPRP, the “shrunken log2 fold change” value was -0.359.

On to RRIRWRPPRLPRPRPRPKEIPRP, for which the “shrunken log2 fold change” value is 0.487.

For the sequence RRIRYRPPRLPRPRPRPCRRPRP, the “shrunken log2 fold change” value is -0.0474.

Take RRIRGRPPRLPRPRPRPVLYPRP: the “shrunken log2 fold change” value was determined as 0.069.

For the sequence RRIRDRPPRLPRPRPRPFVAPRP, the “shrunken log2 fold change” value was determined as 0.0541.

On to RRIRMRPPRLPRPRPRPTIYPRP, for which the “shrunken log2 fold change” value was 0.713.

With RRIRNRPPRLPRPRPRPDQRPRP, the “shrunken log2 fold change” value came to 0.021.

As for RRIRSRPPRLPRPRPRPDRGPRP, the “shrunken log2 fold change” value is -0.0384.

As to RRIRGRPPRLPRPRPRPLEVPRP, the “shrunken log2 fold change” value worked out at 0.252.

Regarding RRIRERPPRLPRPRPRPMEKPRP, the “shrunken log2 fold change” value is -0.0775.

RRIRNRPPRLPRPRPRPSYIPRP: the “shrunken log2 fold change” value is -0.637.

As to RRIRPRPPRLPRPRPRPAQGPRP, the “shrunken log2 fold change” value turned out to be 0.156.

Consider RRIRWRPPRLPRPRPRPWWMPRP, for which the “shrunken log2 fold change” value was determined as 0.388.

As for RRIRDRPPRLPRPRPRPDDKPRP, the “shrunken log2 fold change” value came to 0.0802.

In the case of RRIRKRPPRLPRPRPRPNFVPRP, the “shrunken log2 fold change” value was 0.309.

Take RRIRKRPPRLPRPRPRPSCNPRP: the “shrunken log2 fold change” value amounted to 0.149.

Regarding RRIRARPPRLPRPRPRPLSGPRP, the “shrunken log2 fold change” value worked out at 0.334.

RRIRVRPPRLPRPRPRPLPTPRP: the “shrunken log2 fold change” value was 0.184.

Turning to RRIRLRPPRLPRPRPRPSNAPRP, the “shrunken log2 fold change” value was -0.204.

Regarding RRIRRRPPRLPRPRPRPPLAPRP, the “shrunken log2 fold change” value stood at 1.18.

On to RRIRRRPPRLPRPRPRPRTLPRP, for which the “shrunken log2 fold change” value was 0.311.

Turning to RRIRCRPPRLPRPRPRPYRVPRP, the “shrunken log2 fold change” value was 1.99.

On to RRIRQRPPRLPRPRPRPHPQPRP, for which the “shrunken log2 fold change” value was 0.24.

For the sequence RRIRPRPPRLPRPRPRPMENPRP, the “shrunken log2 fold change” value was found to be 0.127.

Consider RRIRLRPPRLPRPRPRPLQDPRP, for which the “shrunken log2 fold change” value was found to be 0.0629.

On to RRIRQRPPRLPRPRPRPNCEPRP, for which the “shrunken log2 fold change” value came out at 0.117.

For the sequence RRIRMRPPRLPRPRPRPKGMPRP, the “shrunken log2 fold change” value was 1.37.

Consider RRIRRRPPRLPRPRPRPMNGPRP, for which the “shrunken log2 fold change” value is -0.0419.

On to RRIRSRPPRLPRPRPRPRANPRP, for which the “shrunken log2 fold change” value was found to be 0.174.

With RRIRYRPPRLPRPRPRPKLRPRP, the “shrunken log2 fold change” value is -0.111.

On to RRIRGRPPRLPRPRPRPPWKPRP, for which the “shrunken log2 fold change” value was 0.435.

Turning to RRIRARPPRLPRPRPRPPDPPRP, the “shrunken log2 fold change” value was found to be 1.

Take RRIRRRPPRLPRPRPRPEPKPRP: the “shrunken log2 fold change” value worked out at 1.46.

As to RRIRFRPPRLPRPRPRPTMGPRP, the “shrunken log2 fold change” value turned out to be 0.0497.

With RRIRHRPPRLPRPRPRPHANPRP, the “shrunken log2 fold change” value is -0.124.

On to RRIRYRPPRLPRPRPRPQSIPRP, for which the “shrunken log2 fold change” value is -0.0346.

Turning to RRIRKRPPRLPRPRPRPFYCPRP, the “shrunken log2 fold change” value is -0.0322.

Regarding RRIRLRPPRLPRPRPRPVIAPRP, the “shrunken log2 fold change” value is -0.176.

Consider RRIRSRPPRLPRPRPRPRAFPRP, for which the “shrunken log2 fold change” value was determined as 0.304.

As for RRIRARPPRLPRPRPRPCTCPRP, the “shrunken log2 fold change” value was -0.199.

With RRIRMRPPRLPRPRPRPRDMPRP, the “shrunken log2 fold change” value came to 0.316.

Consider RRIRHRPPRLPRPRPRPKDEPRP, for which the “shrunken log2 fold change” value was determined as 0.0349.

Regarding RRIRLRPPRLPRPRPRPAIVPRP, the “shrunken log2 fold change” value stood at 0.0701.

In the case of RRIRTRPPRLPRPRPRPNFSPRP, the “shrunken log2 fold change” value was 0.059.

On to RRIRDRPPRLPRPRPRPSCKPRP, for which the “shrunken log2 fold change” value was -0.1.

On to RRIRVRPPRLPRPRPRPSAMPRP, for which the “shrunken log2 fold change” value turned out to be 0.0604.

On to RRIRCRPPRLPRPRPRPMIDPRP, for which the “shrunken log2 fold change” value is 0.0647.

For RRIRWRPPRLPRPRPRPNGEPRP, the “shrunken log2 fold change” value is -0.0407.

Take RRIRSRPPRLPRPRPRPMSLPRP: the “shrunken log2 fold change” value was 0.226.

Consider RRIRQRPPRLPRPRPRPKFLPRP, for which the “shrunken log2 fold change” value is -0.157.

Take RRIRMRPPRLPRPRPRPWHMPRP: the “shrunken log2 fold change” value was found to be 0.00487.

Consider RRIRYRPPRLPRPRPRPMGWPRP, for which the “shrunken log2 fold change” value was -0.134.

Take RRIRMRPPRLPRPRPRPDKIPRP: the “shrunken log2 fold change” value stood at 0.179.

As to RRIRERPPRLPRPRPRPYAKPRP, the “shrunken log2 fold change” value was -0.329.

Consider RRIRLRPPRLPRPRPRPFTCPRP, for which the “shrunken log2 fold change” value was -0.115.

With RRIRKRPPRLPRPRPRPRQPPRP, the “shrunken log2 fold change” value was 0.467.

For the sequence RRIRERPPRLPRPRPRPHIFPRP, the “shrunken log2 fold change” value was determined as 0.116.

Take RRIRCRPPRLPRPRPRPLCFPRP: the “shrunken log2 fold change” value was -0.0241.

Regarding RRIRSRPPRLPRPRPRPYDCPRP, the “shrunken log2 fold change” value was -0.0167.

Consider RRIRVRPPRLPRPRPRPFTGPRP, for which the “shrunken log2 fold change” value was -0.115.

Regarding RRIRMRPPRLPRPRPRPLIKPRP, the “shrunken log2 fold change” value came out at 0.0477.

In the case of RRIRNRPPRLPRPRPRPCYCPRP, the “shrunken log2 fold change” value was -0.00992.

As for RRIRHRPPRLPRPRPRPRVYPRP, the “shrunken log2 fold change” value was -0.0307.

RRIRYRPPRLPRPRPRPIEMPRP: the “shrunken log2 fold change” value stood at 0.0294.

Regarding RRIRDRPPRLPRPRPRPQHWPRP, the “shrunken log2 fold change” value is 0.122.

Consider RRIRPRPPRLPRPRPRPYRAPRP, for which the “shrunken log2 fold change” value was -0.329.

For RRIRHRPPRLPRPRPRPSCTPRP, the “shrunken log2 fold change” value was -0.263.

Take RRIRERPPRLPRPRPRPGNLPRP: the “shrunken log2 fold change” value was -0.17.

Take RRIRPRPPRLPRPRPRPYVDPRP: the “shrunken log2 fold change” value is -0.117.

Regarding RRIRMRPPRLPRPRPRPLSIPRP, the “shrunken log2 fold change” value was -0.0206.

With RRIRKRPPRLPRPRPRPCEGPRP, the “shrunken log2 fold change” value turned out to be 0.0796.

Turning to RRIRQRPPRLPRPRPRPYAWPRP, the “shrunken log2 fold change” value is -0.0963.

Consider RRIRCRPPRLPRPRPRPMEAPRP, for which the “shrunken log2 fold change” value was -0.0255.

On to RRIRRRPPRLPRPRPRPVDYPRP, for which the “shrunken log2 fold change” value was -0.0118.

On to RRIRNRPPRLPRPRPRPRVGPRP, for which the “shrunken log2 fold change” value is 0.0576.

Consider RRIRHRPPRLPRPRPRPATFPRP, for which the “shrunken log2 fold change” value was -0.662.

Regarding RRIRIRPPRLPRPRPRPWRPPRP, the “shrunken log2 fold change” value was 0.145.

RRIRSRPPRLPRPRPRPADRPRP: the “shrunken log2 fold change” value came out at 0.308.

As to RRIRDRPPRLPRPRPRPQAPPRP, the “shrunken log2 fold change” value is -0.0631.

Consider RRIRGRPPRLPRPRPRPSFLPRP, for which the “shrunken log2 fold change” value is -0.118.

As to RRIRIRPPRLPRPRPRPQYPPRP, the “shrunken log2 fold change” value was -0.32.

Consider RRIRDRPPRLPRPRPRPTPAPRP, for which the “shrunken log2 fold change” value turned out to be 0.551.

As to RRIRCRPPRLPRPRPRPRQVPRP, the “shrunken log2 fold change” value was 0.184.

Take RRIRFRPPRLPRPRPRPPVTPRP: the “shrunken log2 fold change” value was -0.132.

On to RRIRPRPPRLPRPRPRPVEIPRP, for which the “shrunken log2 fold change” value was determined as 0.26.

Regarding RRIRLRPPRLPRPRPRPSVEPRP, the “shrunken log2 fold change” value was 0.0961.

Take RRIRHRPPRLPRPRPRPPFEPRP: the “shrunken log2 fold change” value stood at 0.161.

RRIRSRPPRLPRPRPRPHLHPRP: the “shrunken log2 fold change” value is -0.177.

In the case of RRIRQRPPRLPRPRPRPWWLPRP, the “shrunken log2 fold change” value came out at 0.27.

Turning to RRIRIRPPRLPRPRPRPKMIPRP, the “shrunken log2 fold change” value is -0.379.

Consider RRIRKRPPRLPRPRPRPKMWPRP, for which the “shrunken log2 fold change” value amounted to 0.363.

For the sequence RRIRIRPPRLPRPRPRPNYIPRP, the “shrunken log2 fold change” value was -1.29.

For the sequence RRIRKRPPRLPRPRPRPICHPRP, the “shrunken log2 fold change” value was found to be 0.132.

On to RRIRQRPPRLPRPRPRPPTPPRP, for which the “shrunken log2 fold change” value came out at 0.538.

For RRIRERPPRLPRPRPRPTGDPRP, the “shrunken log2 fold change” value worked out at 0.321.

Turning to RRIRKRPPRLPRPRPRPSPIPRP, the “shrunken log2 fold change” value worked out at 0.0333.

Regarding RRIRSRPPRLPRPRPRPGASPRP, the “shrunken log2 fold change” value is 0.418.
